The numbers were not newly measured in patent publication US20080038276A1, “INHIBITORS OF PLASMA KALLIKREIN” (Activesite Pharmaceuticals, Inc., priority 2006, published 2008), which cites them from elsewhere.

Holding throughout (conditions): in vivo; cited from earlier work
One data set has as its system mouse model of MCAO.
Data set [1] concerns LPS or bacterial induced sepsis in animals.
In a further data set the test system is sepsis patients.

B1: C1-INH: a physiological inhibitor (protein, UniProt P05155 23-500, looked up)
Plasma protease C1 inhibitor: NPNATSSSSQDPESLQDRGEGKVATTVISKMLFVEPILEVSSLPTTNSTTNSATKITANTTDEPTTQPTTEPTTQPTIQPTQPTTQLPTDSPTQPTTGSFCPGPVTLCSDLESHSTEAVLGDALVDFSLKLYHAFSAMKKVETNMAFSPFSIASLLTQVLLGAGENTKTNLESILSYPKDFTCVHQALKGFTTKGVTSVSQIFHSPDLAIRDTFVNASRTLYSSSPRVLSNNSDANLELINTWVAKNTNNKISRLLDSLPSDTRLVLLNAIYLSAKWKTTFDPKKTRMEPFHFKNSVIKVPMMNSKKYPVAHFIDQTLKAKVGQLQLSHNLSLVILVPQNLKHRLEDMEQALSPSVFKAIMEKLEMSKFQPTLLTLPRIKVTTSQDMLSIMEKLEFFDFSYDLNLCGLTEDPDLQVSAMQHQTVLELTETGVEAAAASAISVARTLLVFEVQQPFLFVLWDQQHKFPVFMGRVYDPRA
Regarding B1, in the data set with mouse model of MCAO, the infarct size result is “reduced”. The “vascular permeability in multiple organs and lesions” value in data set [1] is on record as “reduce”. Further, the “clinical outcome in sepsis patients” value in the data set on sepsis patients is given as “Clinical improvement”.
